Data on seven molecules can be found in article PMC9083542, “Small Molecule Inhibitor Targeting CDT1/Geminin Protein Complex Promotes DNA Damage and Cell Death in Cancer Cells” (Frontiers in Pharmacology, 2022).

B4: Full-length human Geminin (natural protein, UniProt O75496 1-209, looked up)
chain: MNPSMKQKQEEIKENIKNSSVPRRTLKMIQPSASGSLVGRENELSAGLSKRKHRNDHLTSTTSSPGVIVPESSENKNLGGVTQESFDLMIKENPSSQYWKEVAEKRRKALYEALKENEKLHKEIEQKDNEIARLKKENKELAEVAEHVQYMAELIERLNGEPLDNFESLDNQEFDSEEETVEDSLVEDSEIGTCAEGTVSSSTDAKPCI
notes: Geminin, human, full length, cloned into pET22b; pET22b can add a C-terminal His tag (surmise); also called full length Geminin; source: E. coli Rosetta 2 (DE3), purified (Ni-NTA IMAC, SEC)

One test deals with T1, CDT1 (Homo sapiens, UniProt Q9H211).
T1 construct: tCDT1 (residues 158–356); also miniCDT1 (residues 158–396); with Geminin
T1 sequence (Q9H211 158-356): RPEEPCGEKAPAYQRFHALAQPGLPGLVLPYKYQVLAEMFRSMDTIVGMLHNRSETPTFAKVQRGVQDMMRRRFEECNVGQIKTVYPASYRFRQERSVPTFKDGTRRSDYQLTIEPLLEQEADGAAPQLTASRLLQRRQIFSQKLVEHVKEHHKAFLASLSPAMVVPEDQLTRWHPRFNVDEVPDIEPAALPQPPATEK
T1 sequence (O75496 1-209 partner): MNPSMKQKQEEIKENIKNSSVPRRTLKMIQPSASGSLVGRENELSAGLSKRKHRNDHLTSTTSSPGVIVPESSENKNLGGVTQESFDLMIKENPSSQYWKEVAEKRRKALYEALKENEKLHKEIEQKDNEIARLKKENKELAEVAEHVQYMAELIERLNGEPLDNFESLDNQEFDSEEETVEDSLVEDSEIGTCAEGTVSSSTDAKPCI
The test is described as follows: SPR inhibition of Geminin binding to immobilized CDT1; AlphaScreen IC50 […]; FRET in MCF7 cells.

For a further test, the target named is CDT1 (Homo sapiens) (UniProt Q9H211). The note with it: cited from earlier work.
Test [1] has as its target T2, His-tagged human CDT1^158-396 Y170A (miniCDT1Y170A) (human, UniProt Q9H211 158-396, Y170A).
T2 construct: CDT1, human, residues 158-396 with Y170A, cloned into pET28a; also called His6-tagged miniCDT1^Y170A; source: E. coli Rosetta 2 (DE3), expressed alone or co-expressed with ΔDBGeminin, purified (Ni-NTA IMAC, SEC); not shown: His6, N-terminal, kept
T2 sequence (looked up): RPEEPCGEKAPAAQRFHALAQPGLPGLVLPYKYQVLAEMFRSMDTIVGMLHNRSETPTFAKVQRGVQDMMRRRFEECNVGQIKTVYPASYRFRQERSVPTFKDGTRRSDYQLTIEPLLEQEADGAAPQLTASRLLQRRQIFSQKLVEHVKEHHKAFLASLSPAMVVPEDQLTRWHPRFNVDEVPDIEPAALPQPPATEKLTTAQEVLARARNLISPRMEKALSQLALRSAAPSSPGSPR
In words: AlphaScreen or HTRF; HTS format and its optimisation (titration, data not shown): Flag-ΔDBGeminin/His6-miniCDT1Y170A complex 200-400 nM (300 nM in the screen), 10 μg/ml streptavidin Donor and nickel-chelate Acceptor beads, 25 nM biotinylated anti-Flag antibody; 25 mM Hepes pH 7.4, 100 mM NaCl, 0.2% BSA. Particulars: both partners purified.

Test [2] addresses T3, His-tagged human CDT1^158-396 L176A (miniCDT1L176A) (human, UniProt Q9H211 158-396, L176A).
T3 construct: CDT1, human, residues 158-396 with L176A, cloned into pET28a; Could not be isolated on its own (limited solubility); used only as complex with ΔDBGeminin; source: E. coli Rosetta 2 (DE3), co-expressed with ΔDBGeminin, co-purified (Ni-NTA IMAC, SEC)
T3 sequence (looked up): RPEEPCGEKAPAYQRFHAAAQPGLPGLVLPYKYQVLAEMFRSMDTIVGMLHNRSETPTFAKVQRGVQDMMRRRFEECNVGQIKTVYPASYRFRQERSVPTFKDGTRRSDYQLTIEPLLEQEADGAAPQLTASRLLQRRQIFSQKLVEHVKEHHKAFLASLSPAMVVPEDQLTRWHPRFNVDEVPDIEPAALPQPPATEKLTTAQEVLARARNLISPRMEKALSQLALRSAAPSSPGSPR
In words: AlphaScreen or HTRF; competition: Flag-ΔDBGeminin/His6-miniCDT1 mutant complex at 50 nM, streptavidin Donor beads with biotinylated anti-Flag antibody, nickel-chelate Acceptor beads; increasing untagged ΔDBGeminin; 25 mM Hepes pH 7.4, 100 mM NaCl, 0.1% BSA; 1.5 h at RT. The note with it: both partners purified. A general note: Alpha assays give light when donor and acceptor beads are brought close together.

Test [3] has as its target T4, His-tagged human CDT1^158-396 F173A (miniCDT1F173A) (human, UniProt Q9H211 158-396, F173A).
T4 construct: CDT1, human, residues 158-396 with F173A, cloned into pET28a; source: E. coli Rosetta 2 (DE3), expressed alone or co-expressed with ΔDBGeminin, purified (Ni-NTA IMAC, SEC); not shown: His6, N-terminal, kept
T4 sequence (looked up): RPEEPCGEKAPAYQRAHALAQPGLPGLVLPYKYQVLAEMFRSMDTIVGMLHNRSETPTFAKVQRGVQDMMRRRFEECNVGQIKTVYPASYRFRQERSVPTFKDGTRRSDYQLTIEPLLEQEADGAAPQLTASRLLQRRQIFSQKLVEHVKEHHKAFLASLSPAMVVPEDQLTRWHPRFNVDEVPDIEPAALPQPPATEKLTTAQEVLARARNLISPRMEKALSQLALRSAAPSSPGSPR
The description is as above. The note with it: both partners purified.

Test [4] deals with B4. The test is described as follows: SPR; Biacore T100, 25°C; tCDT1 (about 6.000 RU) or miniCDT1 covalently immobilised on a CM5 chip (amine coupling, pH 5.5); Geminin 12-966 nM with AF615 at 10 μM, 100 μM, 1 mM (20% DMSO); 20 mM Hepes pH 7.5, 200 mM NaCl, Tween 20 0.01%, 30 μl/min. Particulars: both partners purified. In general terms: In SPR one partner is held on a chip, and binding of the other changes the refractive index at the surface.

Test [5] has as its target T2, His-tagged human CDT1^158-396 Y170A …. The test is described as follows: SPR; Biacore T100, 25°C; about 5.000 RU of miniCDT1 variants held on a Ni NTA chip via N-terminal His-tag; full-length Geminin injected at 1-100 nM; 20 mM Tris pH 7.5, 200 mM NaCl, 30 μl/min. Particulars: both partners purified.
Test [6] concerns the target T5, His-tagged human CDT1^158-396 (miniCDT1), wild type (human, UniProt Q9H211 158-396).
T5 construct: CDT1, human, residues 158-396 (miniCDT1); plasmid described in De Marco et al., 2009; also called His6-tagged miniCDT1; source: E. coli Rosetta 2 (DE3), expressed alone or co-expressed with Geminin variants, purified (Ni-NTA IMAC, SEC); not shown: His6, N-terminal, kept
T5 sequence (looked up): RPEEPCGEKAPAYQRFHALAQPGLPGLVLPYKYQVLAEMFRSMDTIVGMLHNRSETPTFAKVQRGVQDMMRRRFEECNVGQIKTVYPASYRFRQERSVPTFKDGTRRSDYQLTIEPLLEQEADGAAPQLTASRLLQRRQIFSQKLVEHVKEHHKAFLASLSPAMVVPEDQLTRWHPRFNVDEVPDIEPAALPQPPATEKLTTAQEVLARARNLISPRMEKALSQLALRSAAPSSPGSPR
The description is as above. Particulars: both partners purified.

Test [7] has as its target T4, His-tagged human CDT1^158-396 F173A …. The test is described as above. The note with it: both partners purified.
The next test has as its target T6, CDT1-GFP (UniProt Q9H211 1-546).
T6 construct: CDT1 fused to GFP; plasmid and cell line from Xouri et al., 2007; also called MCF7 CDT1-GFP; source: MCF7 cells stably expressing CDT1-GFP, in fixed cells
T6 sequence (looked up): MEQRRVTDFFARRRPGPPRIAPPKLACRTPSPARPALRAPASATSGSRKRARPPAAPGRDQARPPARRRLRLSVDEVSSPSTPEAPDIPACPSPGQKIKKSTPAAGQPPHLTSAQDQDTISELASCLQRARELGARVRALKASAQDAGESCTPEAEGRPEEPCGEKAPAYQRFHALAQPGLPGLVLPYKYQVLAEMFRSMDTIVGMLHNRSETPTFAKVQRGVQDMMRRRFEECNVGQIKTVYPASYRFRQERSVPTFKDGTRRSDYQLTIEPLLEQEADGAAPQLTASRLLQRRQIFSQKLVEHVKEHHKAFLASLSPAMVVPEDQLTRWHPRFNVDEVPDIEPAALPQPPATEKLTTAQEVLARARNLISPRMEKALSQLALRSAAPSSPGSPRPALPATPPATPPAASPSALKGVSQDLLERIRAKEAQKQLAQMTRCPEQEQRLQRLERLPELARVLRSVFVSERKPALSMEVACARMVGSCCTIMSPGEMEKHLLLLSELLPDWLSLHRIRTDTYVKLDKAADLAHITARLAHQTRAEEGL
The test is described as follows: FRET or BRET; sensitized emission FRET in fixed MCF7 cells stably expressing CDT1-GFP (or GFP-NLS as control), transiently transfected with Geminin-dHcRed; with DMSO or AF615 at 11, 33, 100 μM for 24 h. The note with it: partners not purified. (In general: In BRET a luciferase serves as donor, and the signal depends on an acceptor being close.)

The term Ki denotes a dissociation constant, usually derived from enzyme kinetics or from competition with a known ligand. High values mean lower affinity, low ones higher affinity. What is called Kd is the free concentration of one partner at which half of the binding sites on the other are occupied at equilibrium, for simple one-to-one binding.

`O=C(NNC(=S)N1CCOCC1)c1cnccn1` [AF615] gave a Ki on CDT1 of 370 nM.
For Geminin (from UniProt O75496), the Kd in the test with CDT1 (Homo sapiens) is 4.4 nM.

B1: Flag-tagged Geminin^28-209 (ΔDBGeminin) (domain or fragment, human, UniProt O75496 28-209, looked up)
chain: MIQPSASGSLVGRENELSAGLSKRKHRNDHLTSTTSSPGVIVPESSENKNLGGVTQESFDLMIKENPSSQYWKEVAEKRRKALYEALKENEKLHKEIEQKDNEIARLKKENKELAEVAEHVQYMAELIERLNGEPLDNFESLDNQEFDSEEETVEDSLVEDSEIGTCAEGTVSSSTDAKPCI
notes: Geminin, human, residues 28-209 (lacks the N-terminal stretch with the destruction box), cloned into pET22b; also called Flag-tagged ΔDBGeminin; source: E. coli Rosetta 2 (DE3), co-expressed with miniCDT1 variants, co-purified (Ni-NTA IMAC, SEC)
Take B1: the AlphaScreen signal-to-background ratio in test [1] is above 20 fold.

B2: untagged ΔDBGeminin (domain or fragment, human, UniProt O75496 28-209, looked up)
chain: MIQPSASGSLVGRENELSAGLSKRKHRNDHLTSTTSSPGVIVPESSENKNLGGVTQESFDLMIKENPSSQYWKEVAEKRRKALYEALKENEKLHKEIEQKDNEIARLKKENKELAEVAEHVQYMAELIERLNGEPLDNFESLDNQEFDSEEETVEDSLVEDSEIGTCAEGTVSSSTDAKPCI
notes: Geminin, human, residues 28-209 (ΔDBGeminin), without the Flag tag; also called untagged ΔDBGeminin (Geminin 28-209)
Consider B2, for which the entries for the “excess of untagged ΔDBGeminin needed for a similar signal reduction” value in test [2] and in test [3] were 100 fold and 10 fold, respectively.

B3: His-tagged human CDT1^158-356 (tCDT1) (domain or fragment, UniProt Q9H211 158-356, looked up)
chain: RPEEPCGEKAPAYQRFHALAQPGLPGLVLPYKYQVLAEMFRSMDTIVGMLHNRSETPTFAKVQRGVQDMMRRRFEECNVGQIKTVYPASYRFRQERSVPTFKDGTRRSDYQLTIEPLLEQEADGAAPQLTASRLLQRRQIFSQKLVEHVKEHHKAFLASLSPAMVVPEDQLTRWHPRFNVDEVPDIEPAALPQPPATEK
notes: CDT1, human, residues 158-356 (tCDT1); plasmid described in De Marco et al., 2009; source: E. coli Rosetta 2 (DE3), purified (Ni-NTA IMAC, SEC)
Consider B3, for which, in [4], the binding result is “binds”.
For the molecule B4, the Kd was 41 nM in test [5], 9.4 nM in test [6] and 25 nM in [7].

B5: Geminin-dHcRed (natural protein, UniProt O75496 1-209, looked up)
chain: MNPSMKQKQEEIKENIKNSSVPRRTLKMIQPSASGSLVGRENELSAGLSKRKHRNDHLTSTTSSPGVIVPESSENKNLGGVTQESFDLMIKENPSSQYWKEVAEKRRKALYEALKENEKLHKEIEQKDNEIARLKKENKELAEVAEHVQYMAELIERLNGEPLDNFESLDNQEFDSEEETVEDSLVEDSEIGTCAEGTVSSSTDAKPCI
notes: Geminin fused to dHcRed; plasmid from Xouri et al., 2007; source: MCF7 cells, transiently transfected, in fixed cells
B5: in the test with CDT1-GFP, the “FRET mean intensity against cells expressing GFP-NLS and Geminin-dHcRed” value is around 3 fold.
